Measured values: US20190077860A1 (EISAI R AND D MANAGEMENT, published 2019)
Positions count from the first letter of the chain named.

B1: humanized antibody No. 142 (antibody, human IgG2)
heavy: QVQLVQSGSELKKPGASVKVSCKASGYTFTDYSMHWVRQAPGQGLKWMGWINTETGEPTYADDFKGRFVFSLDTSVSTAYLQISSLKAEDTAVYYCARIPLYYYGSRYWYFDVWGQGTTVTVSSASTKGPSVFPLAPSSRSTSESTAALGCLVKDYFPEPVTVSWNSGALTSGVHTFPAVLQSSGLYSLSSVVTVPSSNFGTQTYTCNVDHKPSNTKVDKTVERKSCVECPPCPAPPAAAPSVFLFPPKPKDTLMISRTPEVTCVVVDVSHEDPEVQFNWYVDGVEVHNAKTKPREEQFNSTFRVVSVLTVVHQDWLNGKEYKCKVSNKGLPAPIEKTISKTKGQPREPQVYTLPPSREEMTKNQVSLTCLVKGFYPSDIAVEWESNGQPENNYKTTPPMLDSDGSFFLYSKLTVDKSRWQQGNVFSCSVMHEALHNHYTQKSLSLSPG
light: DIQMTQSPSSLSASVGDRVTITCRASENIYRNLAWYQQKPGKAPKLLVYAATNLADGVPSRFSGSGSGTDYTLTISSLQPEDFATYYCQHFWGTPWTFGQGTKVEIKRTVAAPSVFIFPPSDEQLKSGTASVVCLLNNFYPREAKVQWKVDNALQSGNSQESVTEQDSKDSTYSLSSTLTLSKADYEKHKVYACEVTHQGLSSPVTKSFNRGEC
notes: human Ig kappa; also called L1-4/HK2
B2: humanized antibody No. 134 (antibody, human IgG2)
heavy: B1 heavy with D62Q, D63G, K65T
light: EIVMTQSPATLSVSPGERATLSCRASENIYRNLAWYQQKPGQSPRLLIYAATNLADGIPARFSGSGSGTEYTLTISSLQSEDFAVYYCQHFWGTPWTFGQGTKVEIKRTVAAPSVFIFPPSDEQLKSGTASVVCLLNNFYPREAKVQWKVDNALQSGNSQESVTEQDSKDSTYSLSSTLTLSKADYEKHKVYACEVTHQGLSSPVTKSFNRGEC
notes: human Ig kappa; also called L2-4/HA2
B3: humanized antibody No. 159 (antibody, human IgG2)
heavy: B1 heavy
light: B1 light with K45Q, V48L
notes: human Ig kappa; also called L1-6/HK2
B4: humanized antibody No. 155 (antibody, human IgG2)
heavy: B1 heavy with V2I
light: B1 light with V48L, P80S
notes: human Ig kappa; also called L1-5/HK4
B5: humanized antibody No. 154 (antibody, human IgG2)
heavy: B1 heavy with K46E
light: B1 light with V48L, P80S
notes: human Ig kappa; also called L1-5/HK1
B6: humanized antibody No. 152 (antibody, human IgG2)
heavy: B1 heavy with K46E, D62Q, D63G, K65T
light: B1 light with V48L, P80S
notes: human Ig kappa; also called L1-5/HA1
B7: humanized antibody No. 132 (antibody, human IgG2)
heavy: B1 heavy with V2I, D62Q, D63G, K65T
light: B2 light
notes: human Ig kappa; also called L2-4/HA4
B8: humanized antibody No. 157 (antibody, human IgG2)
heavy: B1 heavy with K46E, D62Q, D63G, K65T
light: B1 light with K45Q, V48L
notes: human Ig kappa; also called L1-6/HA1
B9: humanized antibody No. 137 (antibody, human IgG2)
heavy: B1 heavy with V2I
light: B2 light
notes: human Ig kappa; also called L2-4/HK4
B10: humanized antibody No. 133 (antibody, human IgG2)
heavy: B1 heavy with K46E, D62Q, D63G, K65T
light: B2 light
notes: human Ig kappa; also called L2-4/HA1
B11: humanized antibody No. 136 (antibody, human IgG2)
heavy: B1 heavy
light: B2 light
notes: human Ig kappa; also called L2-4/HK2
B12: humanized antibody No. 156 (antibody, human IgG2)
heavy: B1 heavy with V2I, D62Q, D63G, K65T
light: B1 light with K45Q, V48L
notes: human Ig kappa; also called L1-6/HA4
B13: humanized antibody No. 158 (antibody, human IgG2)
heavy: B1 heavy with D62Q, D63G, K65T
light: B1 light with K45Q, V48L
notes: human Ig kappa; also called L1-6/HA2
B14: humanized antibody No. 145 (antibody, human IgG2)
heavy: B1 heavy
light: B1 light with V48L, P80S
notes: human Ig kappa; also called L1-5/HK2
B15: humanized antibody No. 153 (antibody, human IgG2)
heavy: B1 heavy with D62Q, D63G, K65T
light: B1 light with V48L, P80S
notes: human Ig kappa; also called L1-5/HA2
B16: humanized antibody No. 160 (antibody, human IgG2)
heavy: B1 heavy with V2I
light: B1 light with K45Q, V48L
notes: human Ig kappa; also called L1-6/HK4
B17: humanized antibody No. 151 (antibody, human IgG2)
heavy: B1 heavy with V2I, D62Q, D63G, K65T
light: B1 light with V48L, P80S
notes: human Ig kappa; also called L1-5/HA4
B18: humanized antibody No. 143 (antibody, human IgG2)
heavy: B1 heavy with V2I
light: B1 light
notes: human Ig kappa; also called L1-4/HK4
B19: humanized antibody No. 135 (antibody, human IgG2)
heavy: B1 heavy with K46E
light: B2 light
notes: human Ig kappa; also called L2-4/HK1
B20: humanized antibody No. 144 (antibody, human IgG2)
heavy: B1 heavy with K46E
light: B1 light with K45Q, V48L
notes: human Ig kappa; also called L1-6/HK1
B21: humanized antibody No. 94 (antibody, human IgG1, kappa)
heavy: QVQLVQSGSELKKPGASVKVSCKASGYTFTDYSMHWVRQAPGQGLKWMGWINTETGEPTYAQGFTGRFVFSLDTSVSTAYLQISSLKAEDTAVYYCARIPLYYYGSRYWYFDVWGQGTTVTVSSASTKGPSVFPLAPSSKSTSGGTAALGCLVKDYFPEPVTVSWNSGALTSGVHTFPAVLQSSGLYSLSSVVTVPSSSLGTQTYICNVNHKPSNTKVDKRVEPKSCDKTHTCPPCPAPPAAAPSVFLFPPKPKDTLMISRTPEVTCVVVDVSHEDPEVQFNWYVDGVEVHNAKTKPREEQFNSTFRVVSVLTVVHQDWLNGKEYKCKVSNKGLPAPIEKTISKTKGQPREPQVYTLPPSREEMTKNQVSLTCLVKGFYPSDIAVEWESNGQPENNYKTTPPMLDSDGSFFLYSKLTVDKSRWQQGNVFSCSVMHEALHNHYTQKSLSLSPG
light: B2 light
notes: as for B2

These binders were tested against T1, human EphA4 extracellular region-SEAP-His protein (human, UniProt P54764 20-547) (assay: SPR, Ab captured).
T1 construct: also called hEphA4-SEAP-His
Protocol: The binding affinity of each anti-EphA4 monoclonal humanized antibody obtained in Example 16 for human EphA4 was determined by surface plasmon resonance (SPR) using Biacore T200 (GE Healthcare). First, for the assay of antibody A, a rat anti-mouse IgG₁ antibody produced with a conventional method by immunizing rat with mouse IgG₁ antibody was immobilized on sensor chip CM5. The immobilization of the rat anti-mouse IgG1 antibody on sensor chip CM5 was performed by the amine coupling method using N-hydroxysuccinimide (NHS) and N-ethyl-N′-(3-dimethylaminopropyl)carbodiimide hydrochloride (EDC). Ethanolamine was used in blocking (the sensor chip and the reagents for immobilization were all manufactured by GE Healthcare). The antibody was diluted with a buffer solution for immobilization (10 mM sodium acetate, pH 4.5) and immobilized on the sensor chip according to the protocol attached to Biacore T200. For the assay of each humanized monoclonal antibody, a protein A chip (GE Healthcare, 29-1383-03) was used. Antibody A or the humanized monoclonal antibody was diluted with a running buffer solution HBS-EP (GE Healthcare), injected onto only flow cell 2 for 120 seconds, and captured (captured amount: approximately 30 to 60 RU). Subsequently, human EphA4 extracellular region-SEAP-His protein serially diluted in the range of 50, 16.7, 5.6, 1.9, and 0.6 nM using HBS-EP was sequentially added from the lower toward higher concentration sides without regeneration operation. Binding reaction curves were sequentially observed at the time of the addition (association phase, for 120 sec) and after the completion of the addition (dissociation phase, for 900 sec). After the completion of each observation, the sensor chip was regenerated by the addition of 3 M MgCl₂ (for 60 sec) or 10 mM Glycine-HCl pH 1.5 (for 30 sec). The obtained binding reaction curves were subjected to fitting analysis with 1:1 binding models using software BIA evaluation attached to the system to calculate the affinity (KD=kd/ka) for human EphA4 (Table 6).

T1 sequence (P54764 20-547): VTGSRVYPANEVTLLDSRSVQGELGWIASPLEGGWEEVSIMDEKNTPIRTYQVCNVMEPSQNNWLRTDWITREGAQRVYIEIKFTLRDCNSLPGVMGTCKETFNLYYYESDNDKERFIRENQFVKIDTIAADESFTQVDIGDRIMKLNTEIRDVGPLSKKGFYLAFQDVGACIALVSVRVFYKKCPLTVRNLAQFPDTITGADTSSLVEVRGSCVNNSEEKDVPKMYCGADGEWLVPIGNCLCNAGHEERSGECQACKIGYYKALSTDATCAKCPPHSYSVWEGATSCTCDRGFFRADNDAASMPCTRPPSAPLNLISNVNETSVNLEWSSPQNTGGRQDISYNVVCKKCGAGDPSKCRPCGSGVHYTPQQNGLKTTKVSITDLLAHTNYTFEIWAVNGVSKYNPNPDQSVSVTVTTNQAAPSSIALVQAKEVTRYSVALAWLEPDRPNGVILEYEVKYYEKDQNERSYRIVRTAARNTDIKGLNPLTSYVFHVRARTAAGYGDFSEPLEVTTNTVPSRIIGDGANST

Kd	koff	kon	Binder
1.5 nM	0.0005 s⁻¹	340000 M⁻¹ s⁻¹	B1
1.2 nM	0.00032 s⁻¹	280000 M⁻¹ s⁻¹	B2
2 nM	0.00061 s⁻¹	310000 M⁻¹ s⁻¹	B3
1.9 nM	0.00064 s⁻¹	330000 M⁻¹ s⁻¹	B4
2.2 nM	~0.00085 s⁻¹	390000 M⁻¹ s⁻¹	B5
2 nM	0.00082 s⁻¹	400000 M⁻¹ s⁻¹	B6
1.2 nM	0.00031 s⁻¹	270000 M⁻¹ s⁻¹	B7
2 nM	0.00068 s⁻¹	350000 M⁻¹ s⁻¹	B8
1.3 nM	0.00039 s⁻¹	290000 M⁻¹ s⁻¹	B9
1.1 nM	0.00032 s⁻¹	300000 M⁻¹ s⁻¹	B10
1.4 nM	0.00039 s⁻¹	290000 M⁻¹ s⁻¹	B11
1.6 nM	0.00056 s⁻¹	310000 M⁻¹ s⁻¹	B12
1.9 nM	0.00061 s⁻¹	310000 M⁻¹ s⁻¹	B13
2 nM	0.00065 s⁻¹	330000 M⁻¹ s⁻¹	B14
2.1 nM	0.0006 s⁻¹	290000 M⁻¹ s⁻¹	B15
1.9 nM	0.00061 s⁻¹	320000 M⁻¹ s⁻¹	B16
1.7 nM	0.00053 s⁻¹	320000 M⁻¹ s⁻¹	B17
1.5 nM	0.00051 s⁻¹	350000 M⁻¹ s⁻¹	B18
1.3 nM	0.0004 s⁻¹	320000 M⁻¹ s⁻¹	B19
2 nM	0.00078 s⁻¹	400000 M⁻¹ s⁻¹	B20
0.95 nM	0.00024 s⁻¹	260000 M⁻¹ s⁻¹	B21

These binders were tested against T1, human EphA4 extracellular … (assay: competition ELISA, competitor human Ephrin A5-Fc).
Protocol: Each anti-EphA4 monoclonal humanized antibody obtained in Example 16 was evaluated for its inhibitory activity against the binding between human EphA4 and its human ligand according to the following steps. Each well of a 96-well plate (Nunc) was coated with an anti-alkaline phosphatase antibody (Thermo Fisher Scientific). After incubation overnight at 4° C., each well was blocked with 1% BlockAce (DS Pharma Biomedical) at room temperature for 1 hour. After washing with 0.05% Tween 20/PBS (Thermo Fisher Scientific) three times, the human EphA4 extracellular region-SEAP-His protein obtained by the method of Example 2 was added (final concentration: 10 nM) to each well and incubated at room temperature for 1 hour. After washing three times, a ligand and each serially diluted humanized antibody of antibody A (0, 0.003, 0.01, 0.03, 0.1, 0.3, 1, 3, 10, 30, 100, 300, 1000, and 3000 nM) were added to each well. The ligand used was biotinylated human Ephrin A5-Fc chimera (R&D Systems, final concentration: 0.7 nM). After incubation at room temperature for 1 hour and subsequent washing three times, horseradish peroxidase-labeled streptavidin (GE Healthcare) was added thereto and incubated at room temperature for 1 hour. After washing three times, a TMBZ (3,3′,5,5′-tetramethylbenzidine, Sigma-Aldrich) solution was added to each well and incubated at room temperature for 2 minutes. An equal amount of a reaction stopping solution (1N H₂SO₄, Wako Pure Chemical Industries) was added to each well. The absorbance at 450 nm was read using a microplate reader (PerkinElmer).

IC50	Binder
3.7 nM	B1
3 nM	B2
2.6 nM	B3
2.4 nM	B4
2.5 nM	B5
2 nM	B6
3.1 nM	B7
2.6 nM	B8
2.5 nM	B9
3 nM	B10
2.5 nM	B11
2.5 nM	B12
2.8 nM	B13
3.7 nM	B14
2.3 nM	B15
2.2 nM	B16
2 nM	B17
5.3 nM	B18
2.5 nM	B19
3.6 nM	B20
2.7 nM	B21
